Results from the supplement of paper PMC10065799, “High-throughput profiling of sequence recognition by tyrosine kinases and SH2 domains using bacterial peptide display” (eLife, 2023).

Tested on: c-Src
Assay: phosphorylation enrichment, bacterial display (enrichment ratio); higher = better substrate or ligand; peptides without Tyr show the background
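For SH2 binding enrichment of the phosphorylated peptide, bacterial display in this document: peptide library displayed on the E. coli surface as eCPX fusions, selected cells deep-sequenced, score is each peptide's frequency after selection divided by its frequency in the input.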
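For phosphorylation enrichment, bacterial display in this document: 11-residue human phosphosite peptides and single-mutation variants displayed on the E. coli surface, counted by deep sequencing, each peptide's frequency after selection divided by its frequency in the unselected input library; frequency after pTyr selection over input frequency; kinase dosed for 20-30% of maximal phosphorylation in three min.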

In order of falling phosphorylation enrichment:
1. HITQVYGFFDE [PPP2CA_Y127_Q122H_YF]  12.7
2. NTGNFYDLFGG [PTPN11_Y63_D61N_YF]  4.88
3. GVYSRYFTTYD [CLCA1_Y661]  4.77
4. RENGPYYTSYP [GDAP2_Y487]  3.17
5. HYVYYYSYLLK [PTEN_Y178_R173H]  3.08
6. RRYLYYYSYLL [PTEN_Y177_V175L]  1.68
7. FSMGCYEISLG [HMGCL_Y198_YF]  1.64
8. VSYDEYRYRSF [CFTR_Y515_V520F]  0.939
9. LYNQDYPIHSV [GATM_Y227]  0.901
10. RLKAKYPAATG [GLI3_Y933_A934P]  0.818
11. GEDEPYAEPFA [APBA1_Y183_S184A_YF]  0.649
12. VEDPEYAVTQP [STOML2_Y124_L129P]  0.58
13. RMLREYQELMS [KRT74_Y425]  0.57
14. MCVKSYTIHFS [F5_Y2153_Y2149C_YF]  0.565
15. ETGEPCRLSPE [EIF4G1_Y311_Y311C]  0.553
16. KPGLVYNKVNP [SPRED3_Y72]  0.539
17. NDQANYSLNTD [ADA_Y290]  0.535
18. ISKTWYSAEQF [CD207_Y217_P213S]  0.522
19. DQNVEYKGTVW [FHL1_Y117]  0.488
20. SSVKPYRVFCD [FGB_Y266_YF]  0.481
21. QLPRGYISILV [BAG3_Y205_P209L]  0.479
22. KDHPDYEYQPR [SOX9_Y172_K173E]  0.474
23. NTSKMYIPHTD [EXPH5_Y782_D777N]  0.474
24. KDIENYIQDGK [RAD50_Y964]  0.461
25. NPQKSCFIRLF [WAS_Y83_Y83C_YF]  0.453
26. KDHPDYKFPPR [SOX10_Y171_Q174P_YF]  0.434
27. VNRSGYTLIRK [ATP6V0A2_Y688]  0.43
28. TFGVLYKARNK [CDK2_Y19_V18L_YF]  0.424
29. VNFGAYINDFN [GLB1_Y488_K493N_YF]  0.397
30. NALAQYQEMEK [BBS4_Y395]  0.366
31. LRLFSYSTTIR [CYP7B1_Y365_S363F]  0.358
32. EFNINYNNELP [THG1L_Y228]  0.354
33. IRKDLYSNNVL [ACTC1_Y296_A297S]  0.322

Biological target: Grb2 SH2 (UniProt P62993)
Assay: SH2 binding enrichment of the phosphorylated peptide, bacterial display (enrichment ratio); higher = better substrate or ligand; peptides without Tyr show the background

Sequence of Grb2 SH2 (P62993 whole entry, looked up): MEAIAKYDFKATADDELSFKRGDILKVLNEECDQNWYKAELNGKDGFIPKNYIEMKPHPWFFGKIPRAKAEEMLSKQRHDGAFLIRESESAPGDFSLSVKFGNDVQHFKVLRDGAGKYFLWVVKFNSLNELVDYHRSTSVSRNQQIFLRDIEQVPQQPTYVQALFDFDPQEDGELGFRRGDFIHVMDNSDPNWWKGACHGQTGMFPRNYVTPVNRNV

In order of falling SH2 binding enrichment:
1. VNFGAYINDFN [GLB1_Y488_K493N_YF]  3.12
2. HITQVYGFFDE [PPP2CA_Y127_Q122H_YF]  1.56
3. RLKAKYPAATG [GLI3_Y933_A934P]  1.48
4. KDHPDYEYQPR [SOX9_Y172_K173E]  1.19
5. NTGNFYDLFGG [PTPN11_Y63_D61N_YF]  1.19
6. RMLREYQELMS [KRT74_Y425]  1.13
7. SSVKPYRVFCD [FGB_Y266_YF]  1.11
8. RENGPYYTSYP [GDAP2_Y487]  1.09
9. GEDEPYAEPFA [APBA1_Y183_S184A_YF]  1.08
10. QLPRGYISILV [BAG3_Y205_P209L]  1.04
11. LYNQDYPIHSV [GATM_Y227]  1.02
12. KDHPDYKFPPR [SOX10_Y171_Q174P_YF]  1
13. LRLFSYSTTIR [CYP7B1_Y365_S363F]  0.983
14. KDIENYIQDGK [RAD50_Y964]  0.979
15. RRYLYYYSYLL [PTEN_Y177_V175L]  0.973
16. KPGLVYNKVNP [SPRED3_Y72]  0.951
17. GVYSRYFTTYD [CLCA1_Y661]  0.944
18. NTSKMYIPHTD [EXPH5_Y782_D777N]  0.897
19. VEDPEYAVTQP [STOML2_Y124_L129P]  0.877
20. ETGEPCRLSPE [EIF4G1_Y311_Y311C]  0.866
21. DQNVEYKGTVW [FHL1_Y117]  0.866
22. HYVYYYSYLLK [PTEN_Y178_R173H]  0.865
23. NPQKSCFIRLF [WAS_Y83_Y83C_YF]  0.862
24. MCVKSYTIHFS [F5_Y2153_Y2149C_YF]  0.841
25. IRKDLYSNNVL [ACTC1_Y296_A297S]  0.836
26. TFGVLYKARNK [CDK2_Y19_V18L_YF]  0.828
27. ISKTWYSAEQF [CD207_Y217_P213S]  0.822
28. NALAQYQEMEK [BBS4_Y395]  0.795
29. EFNINYNNELP [THG1L_Y228]  0.774
30. NDQANYSLNTD [ADA_Y290]  0.764
31. VSYDEYRYRSF [CFTR_Y515_V520F]  0.72
32. FSMGCYEISLG [HMGCL_Y198_YF]  0.641
33. VNRSGYTLIRK [ATP6V0A2_Y688]  0.56

Biological target: SHP2-C SH2
Assay: as above

In order of falling SH2 binding enrichment:
1. GVYSRYFTTYD [CLCA1_Y661]  1.27
2. RLKAKYPAATG [GLI3_Y933_A934P]  1.25
3. HITQVYGFFDE [PPP2CA_Y127_Q122H_YF]  1.12
4. SSVKPYRVFCD [FGB_Y266_YF]  1.08
5. RMLREYQELMS [KRT74_Y425]  0.962
6. LRLFSYSTTIR [CYP7B1_Y365_S363F]  0.871
7. EFNINYNNELP [THG1L_Y228]  0.839
8. IRKDLYSNNVL [ACTC1_Y296_A297S]  0.835
9. NTGNFYDLFGG [PTPN11_Y63_D61N_YF]  0.833
10. NPQKSCFIRLF [WAS_Y83_Y83C_YF]  0.817
11. VNRSGYTLIRK [ATP6V0A2_Y688]  0.814
12. NALAQYQEMEK [BBS4_Y395]  0.808
13. KPGLVYNKVNP [SPRED3_Y72]  0.788
14. LYNQDYPIHSV [GATM_Y227]  0.788
15. FSMGCYEISLG [HMGCL_Y198_YF]  0.785
16. KDHPDYKFPPR [SOX10_Y171_Q174P_YF]  0.783
17. ISKTWYSAEQF [CD207_Y217_P213S]  0.781
18. VSYDEYRYRSF [CFTR_Y515_V520F]  0.717
19. RRYLYYYSYLL [PTEN_Y177_V175L]  0.712
20. HYVYYYSYLLK [PTEN_Y178_R173H]  0.702
21. NDQANYSLNTD [ADA_Y290]  0.696
22. KDHPDYEYQPR [SOX9_Y172_K173E]  0.689
23. KDIENYIQDGK [RAD50_Y964]  0.687
24. QLPRGYISILV [BAG3_Y205_P209L]  0.682
25. NTSKMYIPHTD [EXPH5_Y782_D777N]  0.68
26. VNFGAYINDFN [GLB1_Y488_K493N_YF]  0.674
27. VEDPEYAVTQP [STOML2_Y124_L129P]  0.666
28. GEDEPYAEPFA [APBA1_Y183_S184A_YF]  0.652
29. ETGEPCRLSPE [EIF4G1_Y311_Y311C]  0.618
30. MCVKSYTIHFS [F5_Y2153_Y2149C_YF]  0.617
31. RENGPYYTSYP [GDAP2_Y487]  0.597
32. DQNVEYKGTVW [FHL1_Y117]  0.577
33. TFGVLYKARNK [CDK2_Y19_V18L_YF]  0.423

Biological target: c-Src SH2
Assay: as above

In order of rising SH2 binding enrichment:
1. NTSKMYIPHTD [EXPH5_Y782_D777N]  0.386
2. DQNVEYKGTVW [FHL1_Y117]  0.424
3. HYVYYYSYLLK [PTEN_Y178_R173H]  0.425
4. LYNQDYPIHSV [GATM_Y227]  0.481
5. MCVKSYTIHFS [F5_Y2153_Y2149C_YF]  0.485
6. TFGVLYKARNK [CDK2_Y19_V18L_YF]  0.49
7. LRLFSYSTTIR [CYP7B1_Y365_S363F]  0.494
8. VEDPEYAVTQP [STOML2_Y124_L129P]  0.504
9. FSMGCYEISLG [HMGCL_Y198_YF]  0.505
10. KDIENYIQDGK [RAD50_Y964]  0.526
11. EFNINYNNELP [THG1L_Y228]  0.55
12. KDHPDYKFPPR [SOX10_Y171_Q174P_YF]  0.553
13. NDQANYSLNTD [ADA_Y290]  0.554
14. KDHPDYEYQPR [SOX9_Y172_K173E]  0.586
15. QLPRGYISILV [BAG3_Y205_P209L]  0.6
16. IRKDLYSNNVL [ACTC1_Y296_A297S]  0.611
17. NPQKSCFIRLF [WAS_Y83_Y83C_YF]  0.631
18. GEDEPYAEPFA [APBA1_Y183_S184A_YF]  0.636
19. ETGEPCRLSPE [EIF4G1_Y311_Y311C]  0.664
20. VSYDEYRYRSF [CFTR_Y515_V520F]  0.676
21. RRYLYYYSYLL [PTEN_Y177_V175L]  0.686
22. ISKTWYSAEQF [CD207_Y217_P213S]  0.689
23. SSVKPYRVFCD [FGB_Y266_YF]  0.758
24. KPGLVYNKVNP [SPRED3_Y72]  0.815
25. HITQVYGFFDE [PPP2CA_Y127_Q122H_YF]  0.838
26. NTGNFYDLFGG [PTPN11_Y63_D61N_YF]  0.887
27. RENGPYYTSYP [GDAP2_Y487]  0.955
28. GVYSRYFTTYD [CLCA1_Y661]  1.06
29. RLKAKYPAATG [GLI3_Y933_A934P]  1.48
30. VNFGAYINDFN [GLB1_Y488_K493N_YF]  1.48
31. VNRSGYTLIRK [ATP6V0A2_Y688]  1.74
32. NALAQYQEMEK [BBS4_Y395]  3.07
33. RMLREYQELMS [KRT74_Y425]  5.24
